This experiment addresses F-actin of the thin filaments in NRCs, labelled with Phalloidin-iFluor 514 (rat (endogenous in neonatal rat cardiomyocytes)) (UniProt P68035). The experiment is described as follows: FRET or BRET; FRET-FLIM (time-domain, TCSPC, donor lifetime) in NRCs demembranated in relaxing solution with 25 μmol/L nitro-blebbistatin and fixed with paraformaldehyde; mTFP donor, mVenus or Phalloidin-iFluor514 acceptor; cells untreated or incubated with isoproterenol before skinning. In general terms: Bioluminescence resonance energy transfer reports proximity on the nanometre scale.

mTFP-cMyBP-C (cardiac myosin binding protein-C with mTFP conjugated to its N terminus), sequence (Q14896 whole entry): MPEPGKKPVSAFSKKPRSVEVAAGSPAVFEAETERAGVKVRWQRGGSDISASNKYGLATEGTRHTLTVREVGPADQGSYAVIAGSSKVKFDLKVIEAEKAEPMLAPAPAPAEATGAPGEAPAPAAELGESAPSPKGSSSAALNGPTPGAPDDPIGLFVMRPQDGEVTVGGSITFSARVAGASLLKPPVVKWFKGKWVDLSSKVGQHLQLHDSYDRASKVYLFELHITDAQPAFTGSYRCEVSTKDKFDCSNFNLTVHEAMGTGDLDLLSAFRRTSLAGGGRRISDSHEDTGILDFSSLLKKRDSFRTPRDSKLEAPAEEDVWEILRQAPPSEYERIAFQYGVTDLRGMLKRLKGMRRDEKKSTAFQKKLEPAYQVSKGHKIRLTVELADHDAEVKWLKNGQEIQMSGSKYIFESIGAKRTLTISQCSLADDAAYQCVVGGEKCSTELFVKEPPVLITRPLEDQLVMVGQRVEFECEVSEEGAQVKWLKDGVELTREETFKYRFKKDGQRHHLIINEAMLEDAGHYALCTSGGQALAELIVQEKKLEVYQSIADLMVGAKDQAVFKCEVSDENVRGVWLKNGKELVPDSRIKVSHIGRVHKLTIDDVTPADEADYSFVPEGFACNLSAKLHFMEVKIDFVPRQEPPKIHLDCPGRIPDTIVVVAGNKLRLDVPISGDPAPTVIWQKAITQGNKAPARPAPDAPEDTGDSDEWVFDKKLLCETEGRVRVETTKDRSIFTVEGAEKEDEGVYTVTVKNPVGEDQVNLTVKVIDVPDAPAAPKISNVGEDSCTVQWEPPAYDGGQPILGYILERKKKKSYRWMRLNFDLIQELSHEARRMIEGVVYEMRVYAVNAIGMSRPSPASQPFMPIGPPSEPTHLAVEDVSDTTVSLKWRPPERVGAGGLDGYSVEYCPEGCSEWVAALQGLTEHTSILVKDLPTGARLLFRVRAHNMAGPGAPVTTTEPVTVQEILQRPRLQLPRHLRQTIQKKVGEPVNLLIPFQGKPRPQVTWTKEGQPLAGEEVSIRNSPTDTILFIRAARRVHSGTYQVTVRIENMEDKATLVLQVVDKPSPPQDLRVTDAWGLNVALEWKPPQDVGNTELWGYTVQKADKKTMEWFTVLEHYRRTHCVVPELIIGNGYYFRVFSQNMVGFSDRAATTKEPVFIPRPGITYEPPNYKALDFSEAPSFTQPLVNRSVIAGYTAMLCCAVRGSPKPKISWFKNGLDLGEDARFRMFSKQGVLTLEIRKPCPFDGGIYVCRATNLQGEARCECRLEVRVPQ

As for “mTFP-cMyBP-C (cardiac myosin binding protein-C with mTFP conjugated to its N terminus) (from UniProt Q14896 1-1274) (natural protein)”, the FRET efficiency <E%> stood at 12%.

Values taken from publication PMC10041117.
